The values below come from patent EP2954933A1 (3B Pharmaceuticals GmbH, dated 2015).

The test has as its target T1, bradykinin B1 receptor (human) (UniProt P46663).
T1 sequence (looked up): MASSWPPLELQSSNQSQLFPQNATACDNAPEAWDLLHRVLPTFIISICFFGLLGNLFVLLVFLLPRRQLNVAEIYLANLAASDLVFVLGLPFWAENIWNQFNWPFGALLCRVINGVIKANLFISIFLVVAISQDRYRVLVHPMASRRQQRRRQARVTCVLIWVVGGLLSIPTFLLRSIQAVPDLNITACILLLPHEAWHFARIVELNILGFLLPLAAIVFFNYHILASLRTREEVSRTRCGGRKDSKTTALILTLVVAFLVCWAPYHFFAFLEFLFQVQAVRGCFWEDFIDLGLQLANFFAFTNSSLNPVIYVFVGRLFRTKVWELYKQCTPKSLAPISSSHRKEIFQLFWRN
In words: radioligand displacement: 0.35 nM [3H]desArg10-KD on human B1R from CHO cells, compound at 100 nM.

*1 amine or outer side, *2 acyl side, *3 side chain or, on linkers, in order; H or OH if unused. [ ]: non-standard residue; d: D form. Lys(DOTA) = Lys with DOTA chelator on the side chain; Oic = O=C(O)[C@@H]1C[C@@H]2CCCC[C@@H]2N1; d2Nal = N[C@H](Cc1ccc2ccccc2c1)C(=O)O; Glutaryl = O=C(CCCC(=O)[*:2])[*:1]; αMeF = C[C@](N)(Cc1ccccc1)C(=O)O; Ttds = non-natural spacer; Orn = NCCC[C@H](N)C(=O)O; 1206 = not defined here; GABA = NCCCC(=O)O

B1: 1206-Glutar-Ttds-Lys(DOTA)-Ttds-GABA-Orn-Arg-Oic-Pro-Gly-Amf-Ser-nal-Ile-OH (peptide)
peptide: {1206-Glutaryl-Ttds-Lys(DOTA)-Ttds-GABA}-[Orn]R[Oic]PG[αMeF]S[d2Nal]I-OH
modifications: reading uncertain; also: printed as 1206-Glutar-Ttds-Lys(DOTA)-Ttds-GABA-Orn-Arg-Oic-Pro-Gly-Amf-Ser-nal-Ile-OH
B1 displayed an Inhibition [at 100 nM, %] of 17%.

B2: 1206-Glutar-Ttds-Lys(DOTA)-Ttds-GABA-Lys-Arg-Pro-Hyp-Gly-Cha-Ser-Pro-Leu-OH (peptide)
peptide: KRPXGXSPL
modifications: position 4 = Hyp (hydroxyproline); position 6 = Cha (cyclohexylalanine); N-terminus of Lys1 acylated with 1206-Glutar-Ttds-Lys(DOTA)-Ttds-GABA- (1206 = non-peptide NTR1 antagonist moiety; DOTA on the Lys side chain); free C-terminal …
Consider B2, for which the Inhibition [at 100 nM, %] turned out to be 20%.
